Test [1] concerns the target T1, TLR4/MD2 (Homo sapiens, UniProt O00206). Put plainly: Immunoprecipitation of peptides on bead-coupled TLR4/MD2, eluates analysed by MALDI-TOF mass spectrometry. The arrangement: purchased R&D SYSTEMS. Conditions: bead-coupled his-tagged rhTLR4/MD2, 1 mM Calcium, 3 h at 4° C.; MALDI-TOF detection; FIG. 3B, 4, 5. It is filed as binding. As for the experimental part: Anti-His antibody (5 μL, 0.5 mg/mL, Invivogen) and his-tagged rhTLR4/MD2 (5 μL, 1 mg/mL, carrier free, R&D SYSTEMS) were mixed and coupled to Protein A/G Agarose (50 μl, Pierce, Thermo Scientific). Trypsin digested peptides of S100A9 were added for 3 h at 4° C. in the presence of 1 mM Calcium. After washing of the beads in HBS/1 mM Ca-buffer for three times bound peptidic fragments were eluted by addition of 10 mM TRIS/2 mM EDTA-buffer and analysed by ESI-QIT- and MALDI-TOF-mass spectrometry. Identical experiments were performed to analyze the binding of the chemical synthesized peptides of S100A9 (aa63-79), S100A8 (aa55-71) and the corresponding control peptides aa63-79 AS and aa55-71 A3.

The next test has as its system human monocytes. Put plainly: Stimulation of human monocytes, TNFα release quantified by ELISA. The settings on record: for activation of monocytes (TNFα released into the culture medium): human monocytes stimulated for four hours, TNFα by ELISA, FIG. 1; for effect of mutation on function of the S100A9 homodimer: purified mutant S100A9 proteins, alanine exchange, binding to and activation of TLR4. It is filed as cell-based. The source says:
Using standard techniques known in the art, the inventors expressed the individual human proteins S100A8 and S100A9 in recombinant form, and purified them. After generating homodimers and heterodimers, they analysed the properties of the complexes. FIG. 1 illustrates the stimulation of human monocytes for four hours with the indicated concentrations of (A) recombinant human S100A8, recombinant human S100A9 or human S100A8/S100A9, and (B) recombinant human S100A8/S100A9, recombinant human S100A8/S100A9 (N69A) or S100A8/S100A9 (E78A). TNFα released into the culture medium was quantified by means of ELISA.
Monocytes were isolated from human buffy coats by Ficoll-Paque and subsequent Percoll density centrifugation (Pharmacia, Freiburg, Germany) Cells were cultured in Teflon bags (Biofolie 25; Heraeus Instruments, Hanau, Germany) using McCoy's 5a medium supplemented with 15% fetal calf serum for 1 day before stimulation. Monocytes were incubated for 4 hours with different dosis of hS100A8, hS100A9, hS100A8/S100A9 or the modified proteins as indicated in the figures and TNF-α concentrations in supernatants were determined by ELISA (OptEIA, BD Biosciences, Germany).
Release of cytokine TNF-α was measured in the culture supernatants by ELISA (OptEIA, BD Biosciences). […]
For orientation: ELISA stands for enzyme-linked immunosorbent assay.

Test [2] addresses T2, his-tagged rhTLR4/MD2 (human, UniProt O00206 24-631; Q9Y6Y9 19-160).
T2 construct: Bought recombinant human complex (carrier free, R&D SYSTEMS), his-tagged; In the pull-down it was captured by anti-His antibody on Protein A/G agarose; in the ELISA it was coated on the plate; also called TLR4/MD2 complex; TRLR4/MD2
The test can be described thus: modified S100A9 ELISA, TLR4/MD2 coated on the plate, 2 ug/ml S100A9 protein, absorbance at 450 nm (FIG. 6C). How it is done: (§1) Binding of S100A9 proteins to TLR4/MD2 was analysed by a modified S100A9-ELISA. Briefly, TLR4/MD2 was coupled to the wells of a 96-well plate and served as capturing molecule. After blocking of the unspecific binding sites by PBS/5% skim milk powder plates were washed three times. S100A9-wt or mutant S100A9 proteins were added at a concentration of 2 μg/ml each in the presence and absence of 100 μM Calcium and incubated for two hours at room temperature. Unbound S100A9 was removed by washing the plates for three times followed by the addition of a primary anti-S100A9-antibody (1 μg/ml, polyclonal, rabbit). After a washing step the secondary anti-rabbit-IgG-antibody coupled to HRP (1 μg/ml from Cell Signalling) was added. TMB was used as substrate for HRP to quantify binding by absorbance readings at 450 nm in an ELISA reader (Anthos Mirkosysteme).

Test [3] addresses T1, TLR4/MD2. The test can be described thus: Binding of S100A9-wt and mutant proteins to TLR4/MD2 (modified S100A9-ELISA). Conditions: 2 μg/ml protein, plate-coupled TLR4/MD2, absorbance 450 nm; FIG. 6B, 6C. As for the experimental part: as §1
Test [4] addresses T2, his-tagged rhTLR4/MD2. The test can be described thus: modified S100A9 ELISA, TLR4/MD2 coated on the plate, 2 ug/ml S100A9 protein, absorbance at 450 nm. As for the experimental part: as §1

Changes are numbered by the printed parent chain. Names may count otherwise.

T1 sequence (O00206 24-631 limits assumed): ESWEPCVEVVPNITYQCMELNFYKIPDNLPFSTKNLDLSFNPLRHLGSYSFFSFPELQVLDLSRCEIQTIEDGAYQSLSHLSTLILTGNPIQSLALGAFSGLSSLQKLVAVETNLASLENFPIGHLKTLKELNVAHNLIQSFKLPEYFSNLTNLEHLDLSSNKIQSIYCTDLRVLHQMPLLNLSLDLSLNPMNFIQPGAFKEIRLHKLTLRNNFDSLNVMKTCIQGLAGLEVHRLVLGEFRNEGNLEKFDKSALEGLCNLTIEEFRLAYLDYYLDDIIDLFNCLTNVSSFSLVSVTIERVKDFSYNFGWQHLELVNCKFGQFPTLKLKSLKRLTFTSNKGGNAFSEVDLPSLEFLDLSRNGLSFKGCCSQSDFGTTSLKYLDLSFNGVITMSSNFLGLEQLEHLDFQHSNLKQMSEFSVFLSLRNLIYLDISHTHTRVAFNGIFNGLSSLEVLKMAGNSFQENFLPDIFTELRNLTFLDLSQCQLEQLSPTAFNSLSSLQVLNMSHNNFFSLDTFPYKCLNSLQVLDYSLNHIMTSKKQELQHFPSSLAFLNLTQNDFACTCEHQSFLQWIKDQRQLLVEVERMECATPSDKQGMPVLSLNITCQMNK
T1 sequence (Q9Y6Y9 17-160 partner limits assumed): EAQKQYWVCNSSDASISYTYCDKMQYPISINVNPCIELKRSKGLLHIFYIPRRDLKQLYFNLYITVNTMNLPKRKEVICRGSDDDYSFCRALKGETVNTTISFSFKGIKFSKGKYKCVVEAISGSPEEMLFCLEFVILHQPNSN
T2 sequence (O00206 24-631 limits assumed, chain 1 of 2): as the sequence (O00206 24-631 limits assumed) above
T2 sequence (Q9Y6Y9 19-160 limits assumed, chain 2 of 2): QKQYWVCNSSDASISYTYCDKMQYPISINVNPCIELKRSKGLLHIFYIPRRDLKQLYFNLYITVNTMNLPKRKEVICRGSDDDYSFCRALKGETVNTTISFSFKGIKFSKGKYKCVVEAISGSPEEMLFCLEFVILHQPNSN

Consider “55-71: synthetic peptide, positions 55-71 of human S100A8, complete C-terminal EF hand, FKELDINTDGAVNFQEF”, for which the “binding to TLR4/MD2” value with TLR4/MD2 [1] is recorded as “able to bind to TLR4/MD2”.

Consider “63-79 A5: control peptide 63-79 of S100A9 with E64A, D65A, K72A, Q73A and E77A exchanged to alanine (MAALDTNADAALSFAEF) [reference compound]”, for which the “binding to TLR4/MD2” value with TLR4/MD2 [1] is “no binding could be detected”.

Take “63-79: synthetic peptide, positions 63-79 of S100A9, complete C-terminal EF hand, MEDLDTNADKQLSFEEF”: the “binding to TLR4/MD2” value in the test with TLR4/MD2 [1] is on record as “able to bind to TLR4/MD2”.

As to “No. 15: tryptic peptide of human S100A9, amino acid positions 73-85 (QLSFEEFIMLMAR, SEQ ID NO: 3) (QLSFEEFIMLMARTTT)”, in the test with TLR4/MD2 [1], the “binding to TLR4/MD2” value was “specific interaction with TLR4/MD2”.

B1: S100A8: recombinant human protein S100A8 (Uniprot P05109), used as homodimer (protein)
chain: MLTELEKALNSIIDVYHKYSLIKGNFHAVYRDDLKKLLETECPQYIRKKGADVWFKELDINTDGAVNFQEFLILVIKMGVAAHKKSHEESHKE
Consider B1, for which the “activation of monocytes (TNFα released into the culture medium)” value (“activation of monocytes” below) in the test with human monocytes is “induce a particular strong, pro-inflammatory response in monocytes”; with human monocytes (listed as homodimers of S100A8), “induce this response”.

B2: S100A9 double mutant with alanine at both D65 and Q73 (ligand)
chain: MTCKMSQLERNIETIINTFHQYSVKLGHPDTLNQGEFKELVRKDLQNFLKKENKNEKVIEHIMEALDTNADKALSFEEFIMLMARLTWASHEKMHEGDEGPGHHHKPGLGEGTP
notes: Purified recombinant double mutant of human S100A9, homodimer
Take B2: in the test with his-tagged rhTLR4/MD2 [2], the binding result is given as “binds”.

B3: S100A9: recombinant human protein S100A9 (Uniprot P06702), used as homodimer (protein)
chain: B2 chain with A65D, A73Q
For B3, the “activation of monocytes” value in the test on human monocytes is listed as “induce a particular strong, pro-inflammatory response in monocytes”; in the test on human monocytes (listed as homodimers of S100A9), “induce this response”.

B4: heterotetrameric complex between S100A8 and S100A9: complex of recombinant human S100A8 and S100A9, heterotetramer in presence of calcium (protein)
chain 1: B1 chain
chain 2: B2 chain with A65D, A73Q
B4: the “activation of monocytes” value in the test with human monocytes is recorded as “does not induce an inflammatory response in monocytes”; in the test with human monocytes (listed as heterotetrameric complex of s100A8 and S100A9) it was “did not show activating properties that would be comparable to the individual components”.

B5: S100A9E77A (ligand)
chain: B2 chain with A65D, A73Q, E77A
notes: Purified recombinant mutant of human S100A9, homodimer; also called S100A9 E77A mutant
Regarding B5, the “effect of mutation on function of the S100A9 homodimer” value (shortened to “effect of mutation”) in the test with human monocytes was “loss of function”. Moreover, the “binding to the receptor compared to non-mutated protein (S100A9 wt)” value with TLR4/MD2 [3] was “weaker binding”. Besides, in the test with his-tagged rhTLR4/MD2 [4], the binding result is on record as “binds”.

B6: S100A9E64A (ligand)
chain: B2 chain with E64A, A65D, A73Q
notes: Purified recombinant mutant of human S100A9, homodimer; also called S100A9 E64A mutant
In the case of B6, in the test on human monocytes, the “effect of mutation” value is “loss of function”. In the test with TLR4/MD2 [3], the “binding to the receptor compared to non-mutated protein (S100A9 wt)” value was “weaker binding”. Also, the binding result in the test with his-tagged rhTLR4/MD2 [4] is “binds”.

B7: S100A9K72A (ligand)
chain: B2 chain with A65D, K72A, A73Q
notes: Purified recombinant mutant of human S100A9, homodimer; also called S100A9 K72A mutant
Turning to B7, the “effect of mutation” value in the test with human monocytes is “hardly any effect”. Besides, the “binding to the receptor compared to non-mutated protein (S100A9 wt)” value in the test with TLR4/MD2 [3] was “not significantly different from the wild type protein”. Besides, the binding result with his-tagged rhTLR4/MD2 [4] is listed as “binds”.

B8: S100A9R85A (ligand)
chain: B2 chain with A65D, A73Q, R85A
notes: Purified recombinant mutant of human S100A9, homodimer; also called S100A9 R85A mutant
In the case of B8, in the test on human monocytes, the “effect of mutation” value is recorded as “hardly any effect”. In addition, the “binding to the receptor compared to non-mutated protein (S100A9 wt)” value with TLR4/MD2 [3] was “not significantly different from the wild type protein”. Also, in the test with his-tagged rhTLR4/MD2 [4], the binding result was “binds”.

B9: S100A9D65A (ligand)
chain: B2 chain with A73Q
notes: Purified recombinant mutant of human S100A9, homodimer; also called S100A9 D65A mutant
In the case of B9, the “effect of mutation” value in the test with human monocytes is listed as “loss of function”. In the test with TLR4/MD2 [3], the “binding to the receptor compared to non-mutated protein (S100A9 wt)” value was “weaker binding”. Besides, the binding result in the test with his-tagged rhTLR4/MD2 [4] is listed as “binds”.

B10: S100A9 double mutant with alanine at both Q73 and E77 (ligand)
chain: B2 chain with A65D, E77A
notes: as for B2
As for B10, the binding result in the test with his-tagged rhTLR4/MD2 [2] was “binds”.

B11: S100A9 double mutant with alanine at both E64 and Q73 (ligand)
chain: B2 chain with E64A, A65D
notes: as for B2
Consider B11, for which the binding result in the test with his-tagged rhTLR4/MD2 [2] is recorded as “binds”.

B12: S100A9Q73A (ligand)
chain: B2 chain with A65D
notes: Purified recombinant mutant of human S100A9, homodimer; also called S100A9 Q73A mutant
Take B12: the “effect of mutation” value with human monocytes is listed as “loss of function”. The “binding to the receptor compared to non-mutated protein (S100A9 wt)” value with TLR4/MD2 [3] was “weaker binding”. Besides, the binding result with his-tagged rhTLR4/MD2 [4] was “binds”.

B13: S100A9 double mutant with alanine at both E64 and D65 (ligand)
chain: B2 chain with E64A, A73Q
notes: as for B2
In the case of B13, in the test with his-tagged rhTLR4/MD2 [2], the binding result is recorded as “binds”.

For the origin of these results see patent publication US20150210768A1, “Methods and Compounds for Preventing, Treating and Diagnosing an Inflammatory Condition” (Westfaelische Wilhelms-Universitaet Muenster, priority 2012, published 2015).
